{"source": "paper PMC2756145", "key": {"[1]": {"molecular_target": "T1, Pot1pC (Schizosaccharomyces pombe, UniProt O13988 178-389)", "T1 sequence": "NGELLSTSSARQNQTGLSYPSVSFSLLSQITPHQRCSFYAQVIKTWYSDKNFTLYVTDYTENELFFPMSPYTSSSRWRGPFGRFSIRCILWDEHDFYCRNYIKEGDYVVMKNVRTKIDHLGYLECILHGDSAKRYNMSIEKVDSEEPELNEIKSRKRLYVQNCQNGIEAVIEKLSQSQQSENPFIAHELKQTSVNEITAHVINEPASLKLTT", "experiment": "EMSA"}, "[2]": {"molecular_target": "T1, Pot1pC", "experiment": "EMSA", "remark": "listed apart in the source"}, "[3]": {"molecular_target": "T2, Pot1-DBD_Q91A (Schizosaccharomyces pombe, UniProt O13988 1-389, Q91A)", "T2 sequence": "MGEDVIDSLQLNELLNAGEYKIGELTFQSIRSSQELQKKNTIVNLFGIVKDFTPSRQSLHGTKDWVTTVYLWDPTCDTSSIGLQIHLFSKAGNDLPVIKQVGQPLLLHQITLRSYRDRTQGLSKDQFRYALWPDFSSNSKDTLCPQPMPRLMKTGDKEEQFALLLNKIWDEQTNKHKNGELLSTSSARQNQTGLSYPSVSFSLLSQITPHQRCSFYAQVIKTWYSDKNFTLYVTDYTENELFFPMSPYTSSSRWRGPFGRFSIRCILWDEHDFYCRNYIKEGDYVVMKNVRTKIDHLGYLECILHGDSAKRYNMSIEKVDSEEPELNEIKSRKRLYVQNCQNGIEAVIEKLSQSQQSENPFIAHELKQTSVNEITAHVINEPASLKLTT", "experiment": "filter binding"}, "[4]": {"molecular_target": "T3, Pot1-DBD_V97A (Schizosaccharomyces pombe, UniProt O13988 1-389, V97A)", "T3 sequence": "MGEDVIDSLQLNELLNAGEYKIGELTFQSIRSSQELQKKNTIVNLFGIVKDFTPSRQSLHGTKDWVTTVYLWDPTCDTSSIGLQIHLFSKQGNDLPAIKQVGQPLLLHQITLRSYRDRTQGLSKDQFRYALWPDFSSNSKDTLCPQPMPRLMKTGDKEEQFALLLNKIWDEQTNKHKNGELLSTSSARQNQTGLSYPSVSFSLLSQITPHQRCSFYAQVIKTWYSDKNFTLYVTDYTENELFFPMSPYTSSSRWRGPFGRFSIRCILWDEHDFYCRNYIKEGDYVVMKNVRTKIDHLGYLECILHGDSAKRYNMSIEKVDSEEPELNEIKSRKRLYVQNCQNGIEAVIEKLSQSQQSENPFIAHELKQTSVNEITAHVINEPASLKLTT", "experiment": "filter binding"}, "[5]": {"molecular_target": "T4, Pot1pN_D64A (Schizosaccharomyces pombe, UniProt O13988 1-185, D64A)", "T4 sequence": "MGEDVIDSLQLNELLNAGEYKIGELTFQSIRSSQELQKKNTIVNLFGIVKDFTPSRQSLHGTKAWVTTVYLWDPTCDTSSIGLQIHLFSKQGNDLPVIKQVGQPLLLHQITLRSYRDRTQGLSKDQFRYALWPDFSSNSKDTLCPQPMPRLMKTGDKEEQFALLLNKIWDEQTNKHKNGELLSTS", "experiment": "filter binding"}, "[6]": {"molecular_target": "T5, Pot1pN_S123A (Schizosaccharomyces pombe, UniProt O13988 1-185, S123A)", "T5 sequence": "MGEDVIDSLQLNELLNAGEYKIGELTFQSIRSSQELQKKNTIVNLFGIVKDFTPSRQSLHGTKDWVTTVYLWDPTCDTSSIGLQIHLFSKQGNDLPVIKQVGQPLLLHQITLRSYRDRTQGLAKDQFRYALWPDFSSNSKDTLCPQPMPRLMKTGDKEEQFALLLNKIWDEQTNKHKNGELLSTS", "experiment": "filter binding"}, "[7]": {"molecular_target": "T6, Pot1pN_Y115A (Schizosaccharomyces pombe, UniProt O13988 1-185, Y115A)", "T6 sequence": "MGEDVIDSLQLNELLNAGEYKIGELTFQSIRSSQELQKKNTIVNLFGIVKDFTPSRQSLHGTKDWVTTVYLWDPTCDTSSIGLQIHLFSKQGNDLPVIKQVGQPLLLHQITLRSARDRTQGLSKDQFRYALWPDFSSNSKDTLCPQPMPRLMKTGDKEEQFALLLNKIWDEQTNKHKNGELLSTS", "experiment": "filter binding"}, "[8]": {"molecular_target": "T7, Pot1pN (Schizosaccharomyces pombe, UniProt O13988 1-185)", "T7 sequence": "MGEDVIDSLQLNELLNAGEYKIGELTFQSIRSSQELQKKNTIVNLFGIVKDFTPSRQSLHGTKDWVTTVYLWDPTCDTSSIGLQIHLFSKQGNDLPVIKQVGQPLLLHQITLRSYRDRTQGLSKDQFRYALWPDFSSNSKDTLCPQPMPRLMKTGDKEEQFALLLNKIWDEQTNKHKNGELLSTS", "experiment": "filter binding"}, "[9]": {"molecular_target": "T8, Pot1pN_T62A (Schizosaccharomyces pombe, UniProt O13988 1-185, T62A)", "T8 sequence": "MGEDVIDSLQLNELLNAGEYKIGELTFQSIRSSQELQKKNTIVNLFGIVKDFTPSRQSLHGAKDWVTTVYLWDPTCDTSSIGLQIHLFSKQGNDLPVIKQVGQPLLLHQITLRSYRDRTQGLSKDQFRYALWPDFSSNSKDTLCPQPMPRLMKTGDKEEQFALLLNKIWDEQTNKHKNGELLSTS", "experiment": "filter binding"}, "[10]": {"molecular_target": "T9, Pot1-DBD (Schizosaccharomyces pombe, UniProt O13988 1-389)", "T9 sequence": "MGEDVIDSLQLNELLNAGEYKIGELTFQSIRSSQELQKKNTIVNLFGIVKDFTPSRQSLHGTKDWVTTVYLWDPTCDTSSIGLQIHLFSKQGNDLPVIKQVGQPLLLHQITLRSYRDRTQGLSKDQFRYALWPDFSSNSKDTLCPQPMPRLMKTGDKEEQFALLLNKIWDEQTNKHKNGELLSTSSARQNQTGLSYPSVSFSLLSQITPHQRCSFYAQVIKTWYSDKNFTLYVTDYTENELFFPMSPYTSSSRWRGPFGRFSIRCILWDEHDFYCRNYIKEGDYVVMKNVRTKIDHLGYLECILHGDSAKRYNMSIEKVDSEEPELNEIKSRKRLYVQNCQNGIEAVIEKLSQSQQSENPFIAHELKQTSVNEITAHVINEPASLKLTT", "experiment": "filter binding"}}, "note": "Read-outs that look alike come from different tables or passages of the source."}
{"binder": "GGTAACGGT (ssDNA)", "note": "[9mer_T4A]", "values": [{"measurement": "Kd", "setting": "[1]", "result": "700 ± 300", "unit": "nM"}]}
{"binder": "ACGGTTAC (ssDNA)", "note": "[8mer-5']", "values": [{"measurement": "Kd", "setting": "[2]", "result": "15000 ± 2000", "unit": "nM"}]}
{"binder": "GGTTACGGTT (ssDNA)", "note": "[10mer-3']", "values": [{"measurement": "Kd", "setting": "[1]", "result": "300 ± 40", "unit": "nM"}]}
{"binder": "GGTTACG (ssDNA)", "note": "[7mer-3']", "values": [{"measurement": "Kd", "setting": "[2]", "result": "10500 ± 1900", "unit": "nM"}]}
{"binder": "GGTTACGGT (ssDNA)", "note": "[9mer-3']", "values": [{"measurement": "Kd", "setting": "[1]", "result": "400 ± 70", "unit": "nM"}]}
{"binder": "CGTTACGGTTAC (ssDNA)", "note": "[12mer_G1C]", "values": [{"measurement": "Kd", "setting": "[3]", "result": "50 ± 6", "unit": "nM"}, {"measurement": "Kd", "setting": "[4]", "result": "70 ± 7", "unit": "nM"}]}
{"binder": "GCTTACGGT (ssDNA)", "note": "[9mer_G2C]", "values": [{"measurement": "Kd", "setting": "[1]", "result": "3000 ± 600", "unit": "nM"}]}
{"binder": "CGTTACGGT (ssDNA)", "note": "[9mer_G1C]", "values": [{"measurement": "Kd", "setting": "[1]", "result": "1000 ± 100", "unit": "nM"}]}
{"binder": "GGTTACGGTTACGGTTACGGTTAC (ssDNA)", "note": "[24mer]", "values": [{"measurement": "Kd", "setting": "[3]", "result": "0.06 ± 0.003", "unit": "nM"}, {"measurement": "Kd", "setting": "[4]", "result": "0.06 ± 0.004", "unit": "nM"}]}
{"binder": "GGTTACCGT (ssDNA)", "note": "[9mer_G7C]", "values": [{"measurement": "Kd", "setting": "[1]", "result": "3000 ± 500", "unit": "nM"}]}
{"binder": "GGTTTCGGTTAC (ssDNA)", "note": "[12mer_A5T]", "values": [{"measurement": "Kd", "setting": "[4]", "result": "50 ± 4", "unit": "nM"}]}
{"binder": "GGTTACGGA (ssDNA)", "note": "[9mer_T9A]", "values": [{"measurement": "Kd", "setting": "[1]", "result": "2000 ± 400", "unit": "nM"}]}
{"binder": "GGTTACGG (ssDNA)", "note": "[8mer-3']", "values": [{"measurement": "Kd", "setting": "[1]", "result": "1900 ± 300", "unit": "nM"}]}
{"binder": "GGTTAGGGTTAC (ssDNA)", "note": "[12mer_C6G]", "values": [{"measurement": "Kd", "setting": "[4]", "result": "100 ± 10", "unit": "nM"}]}
{"binder": "CCAATGCCCAATGC (ssDNA)", "note": "[C-rich complementary sequence]", "values": [{"measurement": "binding result", "setting": "[1]", "result": "no binding"}]}
{"binder": "GGATACGGT (ssDNA)", "note": "[9mer_T3A]", "values": [{"measurement": "Kd", "setting": "[1]", "result": "600 ± 100", "unit": "nM"}]}
{"binder": "CGGTTAC (ssDNA)", "note": "[7mer-5']", "values": [{"measurement": "Kd", "setting": "[2]", "result": "35000 ± 8000", "unit": "nM"}]}
{"binder": "GGTTACGCT (ssDNA)", "note": "[9mer_G8C]", "values": [{"measurement": "Kd", "setting": "[1]", "result": "800 ± 200", "unit": "nM"}]}
{"binder": "GGTTAC (ssDNA)", "note": "[6mer]", "values": [{"measurement": "Kd", "setting": "[5]", "result": "400 ± 30", "unit": "nM"}, {"measurement": "Kd", "setting": "[6]", "result": "100 ± 10", "unit": "nM"}, {"measurement": "Kd", "setting": "[7]", "result": "300 ± 20", "unit": "nM"}, {"measurement": "Kd", "setting": "[8]", "result": "30 ± 20", "unit": "nM"}, {"measurement": "Kd", "setting": "[9]", "result": "500 ± 50", "unit": "nM"}]}
{"binder": "GGTTAGGGT (ssDNA)", "note": "[9mer_C6G]", "values": [{"measurement": "Kd", "setting": "[1]", "result": "300 ± 50", "unit": "nM"}]}
{"binder": "GGTTACGGTTA (ssDNA)", "note": "[11mer-3']", "values": [{"measurement": "Kd", "setting": "[1]", "result": "600 ± 100", "unit": "nM"}]}
{"binder": "GGTTACGGTTACGGT (ssDNA)", "note": "[15mer]", "values": [{"measurement": "binding result", "setting": "[10]", "result": "binds"}, {"measurement": "Kd", "setting": "[3]", "result": "0.04 ± 0.003", "unit": "nM"}, {"measurement": "Kd", "setting": "[4]", "result": "0.04 ± 0.004", "unit": "nM"}]}
